In the nanobody polyreactivity screen of Harvey et al. (2022):

Test: yeast display, Sf9 membrane polyspecificity reagent, FACS + sequencing; frameworks hold sequencing errors
Method in brief: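 Using colony PCR, genes from sorted yeast display clones were amplified, then sequenced on MiSeq at 2 × 250 and filtered by CDR length. The clones had been stained with 10% biotinylated, detergent-solubilized Sf9 membrane reagent for 1 hour at 4 °C and sorted by FACS into low and high (top ~1%) gates on anti-HA and streptavidin fluorescence. Polyreactivity labels come from the gate of origin.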

Row | Sequence | polyreactivity (PSR sort gate)
1 | QVQLVESGGGLVQAGGRLRLSCAASGSIFVGNTMGWYRQAPGKERELVAAISRTARTYYADSVKGRFTISRDNAKNTVYLQMNSLKPEDTAVYYCARASTQVKYGYEYWGQGTQVTVSS | high polyreactivity
2 | QVQLVESGGGLVQAGGSLRLSCAASGSTFGKNAMGWYRQAPGKERELVAAISTSGTRTFFADSVKGRFTISRDNAKNTVYLQMNSLKPEDTAFYYWNAGRSSRAYYYWGQGTQVTVSS | high polyreactivity
3 | QVQLVESGGGLVQAGGSLRLSCAASGSTFDGNAMGWYRQAPGKERELVAAISYSGGRTYYADSVKGRFTISRDNAKNTVYLQMNSLKPEDTAVYYCATVRPKYSASSYLAYSIFRYGYWGQGTQVTVSS | high polyreactivity
4 | QVQLVESGGGLVQAGGSLRLSCAAYYAMGWYRHAPGKERELVAAIDDGTSTNYADSVKGRFTISRDNAKNTVYLQMNSLKPEDTAVYYCNKLSEVTYYGSKFDYWGQGTQVTVSS | low polyreactivity
5 | QVQLVESGGGLVQAGGSLRLSCAASGRTFSGYAMGWYRQAPGKERELVAVITYSGGSTYYADSVKGRFTISRDNAKNTVYLQMNSLKPEDTAVYYCNADYVIFYQLVDYDYWGQGTQVTVSS | low polyreactivity
6 | QVQLEESGVGLVQAGGSLRLSSAASGNIFVRYSMGWYRQARGKERELVAAISWSGGRTYYADSVKGRFTISRDKAKNSVYFQMNSLKPEDTAVYYCAAGVPKIGQAGYDYWGQGTQVTVSA | high polyreactivity
7 | QVQLVESGGGLVQAGGSLRLSCAASGSIFFPNAMGWYRQAPGKERELVAAISWSGDSTYADSVKGRFTISRDNAKNTVYLQMNSLKPEETAVYSCAAVYLWWSYEFDYWGQGTHVTVSS | low polyreactivity
8 | QVQLVDTGGGLGQAGGSLRLSCAASGSTFFPYAMGWYRQAPGKEREFVAGISSDGGTSYADSVKGRFTISRDNAKNTVYLQMNSLKPEDTAVYYCAALQADRDRYPEFDLMDYWGQGTQVSVSS | low polyreactivity
9 | QVQIVESGGGLVQAGGSLRLSCAASGFIFTAYAMGWYRPGPGKERELDAAISSSGTRTYYADSVKGRFTISRDYAKNTVYLQMNCLKPEDTAVYYCNKLYLVWNFYSGYDYSGQGTQVTVSS | high polyreactivity
10 | QVQLVESGGGLVQAGGSLRLSCAASGRTFRYYDMGWYRQATGKERELVARISISGAGTYYADSVKGRFTISRDNAKNTVYLQINSLKPEDTAVYYCAADLFWWQKTNSGGDYWGQGTQVTVSS | low polyreactivity
11 | QVQLVESGGGLVQAGGSLRLSCAASGNIFSAYAMGWYRQAPGKERELVAAITNGGRTNYADSVKGRFSISRDNAKNTVYLQMNSLKPEDTAVYYCAVASTILGKRTYYYWGQGTQVTVSS | low polyreactivity
12 | QVQLEESGGGLVQAGGSLRLSCDASGSTLLYYAMGWYRPAPGKERELVAAISWRGGSTYYADSVKGRFTISRDNAKNTVYLQMNSLKPEDTAVYYCAARSLRLVGPYYYWGEGTQVTVSS | high polyreactivity
13 | QVQLVESGGGLVQARGSLRLSCAASGFTFYSNAMGWYRQAPGKERELVAVINSDDDSTYYADSVKGRFTISRDNAKNTVYLQMNSLKPEDTAVYYCNKVWRVGKYPYSDRYYFGGGYWGQGTQVTVSS | high polyreactivity
14 | QVQLVESGGGLVQAGGSLRLSCAASGSIFAWYGMGWYRQAPGKERELVAAITSTGSTYYADSVKGRFTISRDNAKNTVYLQMNSLKPEDTAVYYCNAYSVYLWRPGDYWGQGTQVTVSS | low polyreactivity
15 | QVQLVESGGGLVQAGGSIRLSCAASGFIFGLYDMGWYRQAPGKERELDAAISWSGGSTYYADSVKGRFTISRDNAKNTVYLQMNSLKPEDTAVYYCNKDLYADGEYNYDYWGQGTQVTVSS | low polyreactivity
16 | QVQLVESGGGLVQAGGTLRLSCAASGSSYFYYAMGWYRQAPRKERELVADITSGGSTDYADSVKGRFTISRDNAKNTVYVQINSVNPEDSAVYYCAADDFSGYGTEYDYWGQGTQVTVSS | low polyreactivity
17 | QVQLVESGGGLVQAGGSLRLSCAASGFIFYKNAMGWYRKAPGKERELVAAISSRGGSTSYADSVKGRFTISRDNAKNTVYLQMNSLKREDTAVYYCAAYPDYSYYYWGQGTQVTVSS | high polyreactivity
18 | QVQLVESGGGLVQAGGSLRLSCAASGSNFYIYAMGRYRQAPGKERELVAAISYSGGRTTYADSVKGRFTISRDYAKNTVYLQMNSLKPEDTAVYYCAAGFSYYGLAVAPYRSWGRYYNWGQGTQVTVSS | high polyreactivity
19 | QVQLVESGGGLVQAGGSHRLSCAASGITFYGYARGWYRQAPGKERELVAAISGNGGRTYYADSVKGRFTISRDYAKNTVYLQMNSLKPEDTAVYYCNVKVRSRRTGDRYDYWGQGTQVTVSS | high polyreactivity
20 | QVQLVESGGGLVQAGGSLRLSCAASGRIFSFNAMGWYRQAPGKERELVAGITYGGNTYYADSVKGRFTISRDNAKNTVYLQMNSLKPEDTAVYYCAAVRGGRHDYWGQGTQVTVSS | low polyreactivity
21 | QVQLVESGGGLVQAVGSLRLSCAASGSIFDVNAMGWYRQAPGKERELVAAISQRGTRTYYADSVKGRFTISRDNAKNTVYLQMNSLKPEDTAVYYCNRGGWRQYDSWGQGTQVTVSS | high polyreactivity
22 | QVQLVESGGGLVQAGGTLRLSCAASGGTFKVNAMGWYRQAPGKERELVASITGRGGSTYYADSVKGRFTISRDNAKNTVYLQMNSLKPEDTAVYYCAAAWRLGHLRFNSWGQGTQVTVSS | high polyreactivity

Row | Sequence | polyreactivity (PSR sort gate)
23 | QVQLVESGGGLVQAGGSLRLSCAASGRIFYYYAMGWYRQAPGKERELVATITTSGKTYYADSVKGRFTISRDNAKNTVYLQMNSLKPEDTAVYYCNAGWDLVYGYYPRRKNFDYWGQGTKVTVSS | high polyreactivity
24 | QVQLVESGGGLVQAGGSLRLSCAASGSIFYVYAMGWYRQAPGKERELVAAITNYADSVKGRFTISRDNAKNTVYLQMNSQKPPDTAVYYCAADWWRVEMDYWGQGTQVTVSS | low polyreactivity
25 | QVQLVESGGGLVQAGGSLRLSCAASGSTFTIYAMGWYRQAPGKEREFVAAIDEDDGSTYYADSVKGRFTISRDNAKKTVYLQMNSLKPEDTAVYYCNADDIWAYAFDYWGQGTQVTVSS | low polyreactivity
26 | QVQVVESGGGLVQAGGSLRLSCAASGSIFVYYTMGWYRQAPGKERELVAAITRGGRTNFADSVKGRFTISRDNAQNSVYLLMNSLNPEDTAVYYCAKGYYWLSTYGDSRYGYWGQGTQVTVSS | high polyreactivity
27 | QVQLVESGGGLVQAGGSLRLSCAASGFTFKSYAMGWYRQAPGKERELVASISRRGGSTYYADSVKGRFTISRDNAKNTVYLQMNSLKPEDTAVYYCAADKRPPYILDYWGLGTQVTVSS | high polyreactivity
28 | QVQLVESGGGLVQAGGSLRLSCAASGRIFTINAMGWYRQAPGKDRELVAAITGSAASTYYADSVKGRFTISRDNAKNTVYLQMYSLKPEDTAVYYSNARPAGRGYNYWGQGTQVTVSS | high polyreactivity
29 | QVQLVESGGGLVQAGGRLRLSCAASGSIFYYNAMGWYRQAPGKERELVAAISRGGRTYYADSVKGRFTISRDNEKNTVYLQMNSLKPEDTAVYYCSARWSGKSINTISFDYWGQGTQVTVSS | high polyreactivity
30 | QVQLVESGGGLVQAGGSLRLSCAASGITFTGYSMGWYRQAPGKERELVAVISEKGGSTYADSVKGRFTISRDNAKNTVYLQMNSLKPEDTAVYYCAARLWWPYSTAWAKMDYWGQGTQVTVSS | low polyreactivity
31 | QVQLVESGGGLVQAGGSLRLSCAASGSTFYEYAMGWYRQAPGKERELVAAIDERGGNTYYADSVKGRFTISRDNAKNTVYLQMNSLKPEVTAVYYCAADAYPFYQSYYPFEYWGQGTQVTVSS | low polyreactivity
32 | QVQLVESGGGLVQAGGSLRLSCAAYGRTLGDYAMGWYRQAPGKERELVAAISSGGNTYYADSVKGRFTISRDNAKNTVYLQMKSVKPEDSAVYYCDAAHYYRSYWGQGTQETVSS | high polyreactivity
33 | QVQLVESGGGLVQAGGSLRLSCAASGRIFGDNDMGWSRQAPGKDRELVAGIRWRADRTYYADSVKGRFTISRDNAKNTVYLQMNSLKPEDTAVYYCNVGSFTGHSYGFGYWGQGTQVTVSS | low polyreactivity
34 | QVQLVESGGGLVQAGGSLRLSCAASGRIFTQYTMGWYRQAPGKERELVAAINYSGGRTNYADSVKGRFTISRDIAKNTVYLQMNSLKPEDTAVYYCAAGYRRATYGYWGQGTQVTVSS | high polyreactivity
35 | QVQLVESGGGLVQAGGSLRLSCAASGRTFLFNGMGWYRQAPGKERELVASITRGGSTYADSVKGRFTISRDNAKNTVYLQMNSLKPEDTAVYYCAALTSRTYLWTTRPYDYWGQGTQVTVSS | high polyreactivity
36 | QVQLVESGGGLVQAGGSLRLSCAASGGTFYAYAMGWYRQAPGKERELVAAITSGGRTYYADSVKGRFTISRDNAKNTVYLQMNSLKPEDTAVYYCAAKYFRGVKRDYWGQGTQVTVSS | high polyreactivity
37 | QVQLVESAGALVQAGGSLRLSCAASGSTYWRYTMGWYRQAPGKERELVAAISTRGGSTTYADSVKGRFTISRDNAKNTVYLQMNSLKPEDTAVYYCAAGRQYRFDFWGQGTQVTVSS | high polyreactivity
38 | QVQLVESGGRLVQAGGRHRLSGAASRNIFDRYALGWNLQAPGKESDLVAGITWSGGSTYYADSVKGRFTISRDNAKNTVYLHMNSLKPEDTAVYYCGQANYYWGQGTQVTVSS | low polyreactivity
39 | QVHLVESGGGLVQAGGSLRLSCDASGSIFTYYAIGWYRPAPGKERELVAAITNGVDSTYYADSVKGRFTISRDNAKNTVYLQINSLKPEDTAVYYCNADTVVEWFSPSREYDYWGQGTQVTVSS | low polyreactivity
40 | QVQLVESGGGLVQAGGSLRLSCAASGGTFVYALGWYRQAPGKERELVAAISARTTGTYYADSVKGRFTISRDNAKNTVYLQMNSLKPEDTAVYYCAAKSKLSRDLYSWGQGTQVTVSS | low polyreactivity
41 | QVQLVESGGGLVQAGGSLRLSCAASGITFRYYTMGWYRQAPGKERELVAAITTGGSTNYADSVKGRFTISRDNAKNTVYLQMNSLKPEDTAVYYCAATYKYITRGYLYDYWGQGTQVTVSS | high polyreactivity
42 | QVQLVESGGGLVQAGGSLRLSCAASGSTFTVYAMGWYRQAPGKERELVAAISWGGGSTNYADSVKGRFTISRDNAKNTVYLQMNSLKPEDTAVYYCNADIDDIIGSWGDYWGQGTQVTVSS | low polyreactivity
43 | QVQLVESGGGLVRAGGSLRLSCAASGRIFHGNAMGWYRQAPGKERELVAAITWGGTRTYYADSVKGRFTISRDNAKNTVYLQMNSLKPEDTAVYYCAKAGTGFYNSWWEDYWGQGTQVTVSS | low polyreactivity
